# From publication PMC8540335
# B1: SL3-RNA (structured_RNA)
# RNA: GGACUAGCGGAGGCUAGUCC
# Tests used:
# 2NCp7 (NCp7 with 2 Zn2+) = 2NCp7 (NCp7 with 2 Zn2+) (HIV-1, UniProt P04591 378-432); assay: SPR; 2 Zn2+ per protein; 50 RU RNA immobilized; SPR (Biacore X100, SA chip): 10 mM HEPES pH 7.4, 150 mM NaCl, 0.005% Tween-20, 25 C; conditions: protein: recombinant; tags: 6xHis (pET28); label: 3'-biotin; hairpin
# [1] = target: NCp7 (1 Zn2+ per protein, as purified) (HIV-1, UniProt P04591 378-432); assay: SPR; 1 Zn2+ per protein; 50 RU RNA immobilized; SPR (Biacore X100, SA chip): 10 mM HEPES pH 7.4, 150 mM NaCl, 0.005% Tween-20, 25 C; conditions: protein: recombinant; tags: 6xHis (pET28); label: 3'-biotin; hairpin
binder,measurement,setting,value
B1,Kd,2NCp7 (NCp7 with 2 Zn2+),3.15 nM
same,Kd,[1],21.4 nM
